Test results reported in doi:10.1101/2021.12.16.472998 (bioRxiv, 2021).

Columns and labels:
[1] = biological target: recombinant hFc-LY6S-iso1 fusion protein (Homo sapiens, UniProt P0DTL4); assay: immunoblot
[2] = biological target: endogenous LY6S-iso1 protein in human spleen cells (Homo sapiens, UniProt P0DTL4); assay: immunostaining of cells or tissue
[3] = biological target: native LY6S-iso1 protein (hLY6S-E, with its endogenous signal peptide) expressed in HEK293 cells (Homo sapiens, UniProt P0DTL4); assay: immunostaining of cells or tissue
Sequence of native LY6S-iso1 protein (hLY6S-E, with its endogenous signal peptide) expressed in HEK293 cells (P0DTL4 27-134): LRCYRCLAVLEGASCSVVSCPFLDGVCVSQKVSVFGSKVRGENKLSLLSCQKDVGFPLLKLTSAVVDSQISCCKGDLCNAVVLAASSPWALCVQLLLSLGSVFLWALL

Measured: binding result

Sequence of endogenous LY6S-iso1 protein in human spleen cells (P0DTL4 27-134): as above
Sequence of recombinant hFc-LY6S-iso1 fusion protein (P0DTL4 27-134): as above

B1: anti-LY6S-iso1 monoclonal antibody 5E12 (antibody, V domains shown)
VH: QVQLKQSGAELVRPGASVKLSCKAWGYTFTGYEMHWVKQTPVHGLEWIGAIYPGSGGTAYNQKFKGQATLTVDKSSNTAYIELSSLTSEDSAVYYCTVYDFWGQGTTLTVSS
VL: DVVMTQTPLSLPVGLGDHASISCRSSQSLLKSDGNTYLHWYLQKSGQSPKLLIYKVSNRFSGVPDRFSGSGSGTDFTLKISRVEAEDLGVYFCSQSTHVPYTFGGGTKLEIK
binds: all assays above
